{"source": "patent US8241627B2", "about": "“Modified polypeptides stabilized in a desired conformation and methods for producing same” (The Center for Blood Research, Inc., priority 2000, dated 2012)", "type_in_all_cases": "cell-based", "key": {"[1]": {"target": "T1, ICAM-1 (Homo sapiens, UniProt P05362)", "T1 construct": "ICAM-1 was purified from human tonsil; from tissue; host or cells: human tonsil", "T1 sequence (P05362 28-532)": "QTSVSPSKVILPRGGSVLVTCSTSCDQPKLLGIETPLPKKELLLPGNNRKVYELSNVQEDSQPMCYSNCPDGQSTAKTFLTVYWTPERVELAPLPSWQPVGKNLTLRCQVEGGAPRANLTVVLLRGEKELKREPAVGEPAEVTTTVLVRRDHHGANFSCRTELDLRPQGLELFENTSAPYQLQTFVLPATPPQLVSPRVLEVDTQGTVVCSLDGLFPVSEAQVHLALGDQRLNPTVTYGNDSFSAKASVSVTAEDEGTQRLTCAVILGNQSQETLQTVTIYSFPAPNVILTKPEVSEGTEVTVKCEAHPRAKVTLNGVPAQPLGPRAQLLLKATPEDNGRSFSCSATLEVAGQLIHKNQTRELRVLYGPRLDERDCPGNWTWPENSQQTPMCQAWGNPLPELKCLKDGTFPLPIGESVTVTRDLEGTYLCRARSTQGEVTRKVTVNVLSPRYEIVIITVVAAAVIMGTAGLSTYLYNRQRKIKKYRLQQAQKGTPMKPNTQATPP", "test": "Binding of LFA-1 or isolated I-domain transfectants to immobilized ICAM-1", "settings": "for binding of 293T transient transfectants to immobilized ICAM-1: no activating antibody", "description": "Clones of the transfectants that expressed similar levels of cell surface LFA-1, as determined by flow cytometry using monoclonal antibody TS2/4 (FIG. 3B), were tested for their ability to bind to immobilized ICAM-1, as previously described (Lu, C and Springer, T A (1997) J Immunol 159:268-278).\n(§1) Briefly, ICAM-1 was purified from human tonsil, and coated to 96-well plates as described previously (Lu, C and Springer T A, (1997) J Immunol 159:268-278). Cells were labeled with a florescence dye 2′,7′-bis-(carboxyethyl)-5(and-6)-carboxyfluorescein, acetoxymethyl ester (BCECF-AM), and resuspended to 1×10^6/ml in L15/FBS. 50 μl cell suspension was mixed in ICAM-1 coated wells with an equal volume of L15/FBS in the absence or presence of monoclonal antibody (CBRLFA-1/2, 10 μg/ml). Monoclonal antibodies were used at final concentration of 1:20 hybridoma supernatant, 1:200 ascites, or μg/ml purified IgG. For testing the effect of divalent cations, BCECF-AM-labeled cells were washed 2× with TS buffer, pH7.5 (20 mM Tris, pH 7.5, 150 mMNaCl) containing 5 mM EDTA, followed by 2 washes with TS buffer, pH7.5. Cells were then resuspended to 5×10^5/ml in the TS buffer, pH7.5 supplemented with 1 mM MgCl2/CaCl2, MgCl2, MnCl2 mM EDTA, and 100 μl cell suspension was added to ICAM-1 coated wells. After incubation at 37° C. for 30 minutes, unbound cells were washed off on a Microplate Autowasher (Bio-Tek Instruments, Winooski, Vt.). The fluorescence content of total input cells and the bound cells in each well was quantitated on a Fluorescent Concentration Analyzer (IDEXX, Westbrook, Me.). The bound cells were expressed as a percentage of total input cells per sample well.\nFor generating stable K562 transfectants that express the I-domain on the surface, 20 μg of SspI-linearized pcDNA3.1/Hygro(+) containing the sequences encoding the I domain and the PDGFR transmembrane domain was used to transfect K562 cells by electroporation as described above. Transfectants were selected for resistance to 100 μg/ml hygromycin B, and were further subcloned by cell sorting and limiting dilution; clones that expressed similar levels of surface wild-type and mutant I domain-PDGFR were selected for functional studies. Stable cell lines were maintained in RPMI medium 1640 supplemented with 10% FBS and 100 μg/ml hygromycin B. Cell surface expression of the isolated I-domains was determined by flow cytometry using antibody TS1/22 to the I-domain (FIG. 7). Two clones from each transfectant were selected and tested for binding to immobilized ICAM-1, and similar results were obtained with each of the two clones (FIG. 8A).\nIf the constitutive ligand binding activity of mutant K287C/K294C is due to the formation of a disulfide bond between the introduced C287 and C294, disruption of the disulfide bond with a reducing agent would abolish ligand binding ability of the mutant. Accordingly, the transfectants were treated with the reducing agent DTT (10 mM) in L15/FBS containing Mg^2+ and Ca^2+, and the ability of transfectants to bind to ICAM-1 was assessed.\nFurthermore, the effect of divalent cations on ligand binding of the isolated I-domains expressed on the surface of K562 transfectants was tested. The binding reactions were performed in HEPES/NaCl/glucose (20 mM HEPES, pH 7.5, 140 mM NaCl, 2 mg/ml glucose) supplemented with 1 mM […], 1 mM Mg^2+, or 1 mM EDTA."}, "[2]": {"target": "T2, iC3b (Homo sapiens, UniProt P01024)", "T2 construct": "mutant to iC3b coated on plastic", "T2 sequence (P01024 23-667 limits assumed)": "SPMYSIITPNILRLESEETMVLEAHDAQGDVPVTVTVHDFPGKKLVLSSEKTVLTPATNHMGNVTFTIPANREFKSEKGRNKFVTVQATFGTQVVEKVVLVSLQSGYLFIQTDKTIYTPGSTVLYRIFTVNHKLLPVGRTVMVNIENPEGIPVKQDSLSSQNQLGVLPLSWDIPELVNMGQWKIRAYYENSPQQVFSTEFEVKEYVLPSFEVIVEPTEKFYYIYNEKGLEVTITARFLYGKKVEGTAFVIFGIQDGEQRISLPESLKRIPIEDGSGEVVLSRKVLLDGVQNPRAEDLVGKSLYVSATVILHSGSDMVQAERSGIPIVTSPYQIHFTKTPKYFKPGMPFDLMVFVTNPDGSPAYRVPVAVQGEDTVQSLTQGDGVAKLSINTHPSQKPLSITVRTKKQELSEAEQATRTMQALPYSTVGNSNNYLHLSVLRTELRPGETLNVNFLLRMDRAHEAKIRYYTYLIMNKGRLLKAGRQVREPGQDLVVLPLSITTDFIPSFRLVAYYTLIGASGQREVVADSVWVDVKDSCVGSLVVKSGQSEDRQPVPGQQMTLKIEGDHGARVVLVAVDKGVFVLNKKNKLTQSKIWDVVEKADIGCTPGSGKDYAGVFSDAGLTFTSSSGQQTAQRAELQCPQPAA", "T2 sequence (P01024 749-1303 limits assumed)": "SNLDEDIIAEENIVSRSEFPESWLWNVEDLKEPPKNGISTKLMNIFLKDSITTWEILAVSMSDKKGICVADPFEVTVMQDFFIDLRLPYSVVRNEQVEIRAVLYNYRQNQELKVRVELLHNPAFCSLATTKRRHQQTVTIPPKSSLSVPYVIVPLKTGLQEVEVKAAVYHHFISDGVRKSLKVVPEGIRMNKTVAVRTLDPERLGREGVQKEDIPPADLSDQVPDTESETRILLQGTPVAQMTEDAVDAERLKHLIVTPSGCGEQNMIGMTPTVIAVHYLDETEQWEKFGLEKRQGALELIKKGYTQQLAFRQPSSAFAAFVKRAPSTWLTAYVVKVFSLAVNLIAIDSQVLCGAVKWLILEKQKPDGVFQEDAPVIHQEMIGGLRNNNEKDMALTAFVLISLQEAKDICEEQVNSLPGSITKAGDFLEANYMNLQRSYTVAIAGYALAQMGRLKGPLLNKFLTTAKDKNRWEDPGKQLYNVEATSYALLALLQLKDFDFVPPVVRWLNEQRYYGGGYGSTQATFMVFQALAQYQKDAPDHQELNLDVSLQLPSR", "T2 sequence (P01024 1321-1663 limits assumed)": "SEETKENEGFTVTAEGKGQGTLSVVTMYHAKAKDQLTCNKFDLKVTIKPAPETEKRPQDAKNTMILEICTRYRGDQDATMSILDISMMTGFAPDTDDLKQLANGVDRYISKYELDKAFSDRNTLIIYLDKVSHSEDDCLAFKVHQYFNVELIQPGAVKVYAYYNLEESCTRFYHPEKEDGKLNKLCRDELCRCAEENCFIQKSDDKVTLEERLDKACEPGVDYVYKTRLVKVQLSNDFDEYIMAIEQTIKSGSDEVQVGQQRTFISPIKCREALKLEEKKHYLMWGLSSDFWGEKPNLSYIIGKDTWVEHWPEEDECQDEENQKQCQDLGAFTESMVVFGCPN", "test": "Adhesion of αMβ2 (Mac-1) or αM I-domain transfectants to immobilized iC3b", "description": "In order to assess the effect of the introduction of pairs of potentially disulfide bond-forming cysteines into the I-domain of αMβ2 on CBRM 1/5 activation-dependent epitope expression and ligand binding, plasmids encoding the wild-type or mutant αM subunits and the β2 subunit were co-transfected into 293T and K562 cells. α.β heterodimer formation was confirmed using monoclonal antibody CBRM1/32 which recognizes an epitope in the putative β-propeller domain of the αM subunit only after association with the β2 subunit, and antibody CBRM1/5 was used to detect integrin activation.\nAlternatively, isolated Mac-1 mutant I-domains were expressed on the cell surface in conjunction with an artificial signal sequence and transmembrane domain of the PDGF receptor. Adhesion was assayed in L15/FBS/MnCl2 at 37° C.\nIn a further study, the open I-domain mutants Q 163C/Q309C and D294C/Q311C were stably expressed in K562 cells, and clones expressing the same levels of receptors were selected. Adhesion assays to immobilized iC3b were performed with L15/FBS at 37° C.\nBinding of αMβ2 transfectants containing mutant I-domains to immobilized iC3b on plastic was tested in the presence and absence of DTT."}, "[3]": {"target": "T3, wild-type LFA-1 (Homo sapiens, UniProt P20701)", "T3 construct": "expressed in transfected cells", "T3 sequence (P20701 26-1170)": "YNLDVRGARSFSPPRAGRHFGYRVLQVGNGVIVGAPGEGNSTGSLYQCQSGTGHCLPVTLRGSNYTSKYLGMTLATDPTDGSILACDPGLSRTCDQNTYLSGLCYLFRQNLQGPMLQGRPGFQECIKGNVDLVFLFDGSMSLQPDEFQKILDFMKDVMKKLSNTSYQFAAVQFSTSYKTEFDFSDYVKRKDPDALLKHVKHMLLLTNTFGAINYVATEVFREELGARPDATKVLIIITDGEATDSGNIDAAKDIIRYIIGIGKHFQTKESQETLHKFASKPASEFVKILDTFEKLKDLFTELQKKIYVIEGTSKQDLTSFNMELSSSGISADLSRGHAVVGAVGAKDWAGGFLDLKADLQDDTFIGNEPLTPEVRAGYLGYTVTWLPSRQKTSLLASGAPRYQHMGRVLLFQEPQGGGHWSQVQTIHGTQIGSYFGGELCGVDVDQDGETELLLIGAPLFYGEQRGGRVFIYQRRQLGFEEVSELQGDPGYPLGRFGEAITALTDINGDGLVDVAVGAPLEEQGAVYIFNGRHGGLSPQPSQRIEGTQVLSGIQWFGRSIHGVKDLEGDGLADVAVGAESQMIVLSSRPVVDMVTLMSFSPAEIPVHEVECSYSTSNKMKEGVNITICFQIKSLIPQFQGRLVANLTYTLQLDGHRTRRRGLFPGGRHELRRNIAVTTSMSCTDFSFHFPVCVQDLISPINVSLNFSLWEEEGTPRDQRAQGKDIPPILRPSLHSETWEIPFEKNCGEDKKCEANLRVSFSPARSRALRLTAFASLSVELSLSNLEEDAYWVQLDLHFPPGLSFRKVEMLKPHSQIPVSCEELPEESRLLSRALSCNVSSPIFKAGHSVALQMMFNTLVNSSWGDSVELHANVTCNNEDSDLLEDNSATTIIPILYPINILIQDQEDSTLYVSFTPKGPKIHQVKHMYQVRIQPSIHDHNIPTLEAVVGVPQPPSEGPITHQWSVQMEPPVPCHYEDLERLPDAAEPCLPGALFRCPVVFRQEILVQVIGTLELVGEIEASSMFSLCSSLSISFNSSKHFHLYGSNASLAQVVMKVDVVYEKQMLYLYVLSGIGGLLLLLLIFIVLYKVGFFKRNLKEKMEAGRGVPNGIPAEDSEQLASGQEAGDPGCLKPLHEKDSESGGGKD", "T3 sequence (P05107 23-769 partner)": "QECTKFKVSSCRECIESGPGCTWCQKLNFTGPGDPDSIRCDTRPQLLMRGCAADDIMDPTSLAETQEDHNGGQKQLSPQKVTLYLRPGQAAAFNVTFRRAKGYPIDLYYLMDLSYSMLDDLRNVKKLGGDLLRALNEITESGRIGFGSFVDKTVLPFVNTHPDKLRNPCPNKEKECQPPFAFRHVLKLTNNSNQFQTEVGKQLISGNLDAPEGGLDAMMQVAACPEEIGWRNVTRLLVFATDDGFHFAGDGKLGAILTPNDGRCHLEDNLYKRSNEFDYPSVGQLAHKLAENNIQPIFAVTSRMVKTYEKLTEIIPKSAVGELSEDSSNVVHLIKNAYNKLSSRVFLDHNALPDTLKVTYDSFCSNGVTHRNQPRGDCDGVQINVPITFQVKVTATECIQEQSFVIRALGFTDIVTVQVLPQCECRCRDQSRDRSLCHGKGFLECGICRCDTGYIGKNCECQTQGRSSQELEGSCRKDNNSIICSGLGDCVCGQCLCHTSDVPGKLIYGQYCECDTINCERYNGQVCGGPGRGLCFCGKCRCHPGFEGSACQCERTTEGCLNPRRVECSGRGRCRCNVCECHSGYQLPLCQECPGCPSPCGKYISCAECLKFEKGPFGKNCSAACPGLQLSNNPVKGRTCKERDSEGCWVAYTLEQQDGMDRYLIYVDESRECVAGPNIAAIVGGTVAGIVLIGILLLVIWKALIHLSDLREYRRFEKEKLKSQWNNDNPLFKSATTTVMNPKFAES", "test": "Inhibition of binding of wild-type LFA-1 transfectants to immobilized ICAM-1", "settings": "lovastatin 0-50 μM; cells stimulated with Mn2+ or antibody CBRLFA1/2", "description": "as §1, with “Cells were then resuspended to 5×10^5/ml in the TS buffer, pH7.5 supplemented with 1 mM MgCl2/CaCl2, MgCl2, MnCl2 mM EDTA, and 100 μl cell suspension was added to ICAM-1 coated wells. After incubation at 37° C. for 30 minutes, unbound cells were washed off on a Microplate Autowasher (Bio-Tek Instruments, Winooski, Vt.).” left out, “well. […]” for “well.”\n(§2) The high affinity open I-domains of the invention can be used to discriminate between direct/competitive and indirect/non-competitive modes of inhibition of LFA-1. […] Accordingly, the ability of lovastatin to inhibit ligand binding of the high-affinity I-domain (K287C/K294C) was assessed. […]"}, "[4]": {"target": "T4, LFA-1 mutant K287C/K294C (Homo sapiens, UniProt P20701, K312C/K319C)", "T4 construct": "expressed in transfected cells", "T4 sequence (P20701 26-1170 K312C/K319C)": "as the sequence (P20701 26-1170) above, with K287C, K294C counted along it", "T4 sequence (P05107 23-769 partner)": "as the sequence (P05107 23-769 partner) above", "test": "Inhibition of binding of mutant K287C/K294C LFA-1 transfectants to immobilized ICAM-1", "settings": "lovastatin 0-50 μM", "description": "as §1, with “Cells were then resuspended to 5×10^5/ml in the TS buffer, pH7.5 supplemented with 1 mM MgCl2/CaCl2, MgCl2, MnCl2 mM EDTA, and 100 μl cell suspension was added to ICAM-1 coated wells. After incubation at 37° C. for 30 minutes, unbound cells were washed off on a Microplate Autowasher (Bio-Tek Instruments, Winooski, Vt.).” left out, “well. […]” for “well.”\nas §2"}}}
{"molecule": "wild-type LFA-1: wild-type human αL/β2 (LFA-1) expressed on 293T or K562 transfectants [reference compound]", "values": [{"measurement": "binding of 293T transient transfectants to immobilized ICAM-1", "setting": "[1]; 293T", "value": "constitutively strong binding"}, {"measurement": "binding of K562 stable transfectants to immobilized ICAM-1 with activating mAb CBRLFA-1/2", "setting": "[1]; K562, CBRLFA-1/2 10 μg/ml", "value": "greatly increased"}, {"measurement": "effect of Mn2+ and Mg2+ on binding of K562 transfectants to ICAM-1", "setting": "[1]; K562, intact LFA-1, Mn2+ / Mg2+", "value": "greatly enhanced"}, {"measurement": "binding of K562 stable transfectants to immobilized ICAM-1", "setting": "[1]; K562, no activating antibody", "value": "low basal binding"}, {"measurement": "effect of DTT treatment on binding to ICAM-1", "setting": "[1]; K562 transfectants, DTT 10 mM in L15/FBS", "value": "increased binding"}]}
{"molecule": "K294C: single cysteine substitution mutant of LFA-1 αL", "values": [{"measurement": "binding of 293T transient transfectants to immobilized ICAM-1", "setting": "[1]; 293T", "value": "comparable to that of the wild-type"}]}
{"molecule": "L289C: single cysteine substitution mutant of LFA-1 αL", "values": [{"measurement": "binding of 293T transient transfectants to immobilized ICAM-1 with activating mAb CBRLFA-1/2", "setting": "[1]; 293T, CBRLFA-1/2 10 μg/ml", "value": "increased"}, {"measurement": "binding of 293T transient transfectants to immobilized ICAM-1", "setting": "[1]; 293T", "value": "reduced binding"}]}
{"molecule": "Wild type: wild-type αMβ2 (Mac-1) transfectant", "values": [{"measurement": "effect of DTT on binding of intact αMβ2", "setting": "[2]; DTT", "value": "increased binding"}, {"measurement": "adhesion of αMβ2 transfectant to iC3b, +DTT +activation", "setting": "[2]; DTT treatment, activated by mAb CBR LFA-1/2", "value": "++++ (++++: 75-100% of binding by activated wild type transfectant)"}, {"measurement": "adhesion of αMβ2 transfectant to iC3b, +DTT −activation", "setting": "[2]; DTT treatment, no activating mAb", "value": "++ (++25-50%)"}, {"measurement": "ligand binding (iC3b) of intact αMβ2 heterodimer in K562 stable transfectants", "setting": "[2]; K562, L15/FBS at 37° C.", "value": "little basal activity"}, {"measurement": "adhesion of αMβ2 transfectant to iC3b, −DTT +activation", "setting": "[2]; no DTT, activated by mAb CBR LFA-1/2", "value": "++++ (++++: 75-100% of binding by activated wild type transfectant)"}, {"measurement": "adhesion of αMβ2 transfectant to iC3b, −DTT −activation", "setting": "[2]; no DTT, no activating mAb", "value": "± (+−.: 0-5%)"}]}
{"molecule": "CC[C@H](C)C(=O)O[C@H]1C[C@@H](C)C=C2C=C[C@H](C)[C@H](CC[C@@H]3C[C@@H](O)CC(=O)O3)[C@H]21", "note": "[lovastatin]", "values": [{"measurement": "inhibition of ICAM-1 binding by cells expressing wild-type LFA-1", "setting": "[3]", "value": "inhibits"}, {"measurement": "interference with ligand binding by the high affinity open K287C/K294C mutant", "setting": "[4]", "value": "does not interfere"}]}
